# Positions count from the first letter of the chain named.
# B1: 356A11 human monoclonal anti-IL-22 antibody (Examples 10, 11, 14, 15) (antibody, V domains shown)
# VH: QVQLVQSGAEVKKPGASVKVSCKASGYTFTNYYMHWVRQAPGQGLEWVGWINPYTGSAFYAQKFRGRVTMTRDTSISTAYMELSRLRSDDTAVYYCAREPEKFDSDDSDVWGRGTLVTVSS
# VL: QAVLTQPPSVSGAPGQRVTISCTGSSSNIGAGYGVHWYQQLPGTAPKLLIYGDSNRPSGVPDRFSGSKSGTSASLAITGLQAEDEADYYCQSYDNSLSGYVFGGGTQLTVLG
# B2: 375G06 IgG (non-germlined) (antibody, V domains shown)
# VH: EVQLVQSGAEVKKPGASVKVSCQASGYTFSDYYIHWVRQTPGQGFEWMGWVNPDTGGTRYAQKFQGWVTMTRDMSNTTAYMELPRLRDDDTAVYYCARDLTGYDYYDRWGQGTLVTVSS
# VL: QSVLTQPPSMSVAPGKTATITCGGNNFRNKRVHWYQQRPGQAPVLVIYYDSDRPSGIPERFSGSRSGNTATLTISRVEAGDEADFYCQVWDFLADEAMFGGGTKLTVL
# notes: IgG
# B3: 376B10 IgG (non-germlined) (antibody, V domains shown)
# VH: B2 VH with R85G, Y105Q, D107T, R108A
# VL: QSVLTQPPSVSVAPGKTATITCGGNNFRNKRVHWYQQRPGQAPVLVIYYDSDRPSGIPERFSGSRSGNTATLTISRVEAGDEADFYCSTFDPFTDRPLFGGGTKLTVLG
# notes: IgG
# B4: 097D09 IgG (non-germlined) (antibody, V domains shown)
# VH: EVQLVESGGGLVTPGGSLRLSCAASGFTFSDYYMSWVRQAPGRGLEWVSAISGSGGSTYYADSVKGRITISRDNAKNSLYLQMSSLRSEDTAVYYCARGLWVWDPLDYWGRGTLVTVSS
# VL: DIQMTQSPSTLSASIGDRVTITCRASEGIYHWLAWYQQKPGKAPKLLIYKASSLASGAPSRFSGSGFGTDFTLTISSLQPDDFATYYCQQYSEFAWTFGGGTKLEIKR
# notes: IgG
# How the values were obtained:
# murine IL-22 [1] = target: T1, murine IL-22 (murine, UniProt Q9JJY9 34-179); test: cell-based or functional assay
# T1 sequence: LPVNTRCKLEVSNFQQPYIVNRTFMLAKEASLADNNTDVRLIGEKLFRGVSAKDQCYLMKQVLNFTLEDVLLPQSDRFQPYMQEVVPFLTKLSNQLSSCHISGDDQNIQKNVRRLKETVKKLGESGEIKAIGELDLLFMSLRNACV
# monkey IL-22 [2] = target: monkey IL-22 (monkey); test: cell-based or functional assay
# rat IL-22 [3] = target: T2, rat IL-22 (rat, UniProt G3V6X6 34-178); test: cell-based or functional assay
# T2 sequence: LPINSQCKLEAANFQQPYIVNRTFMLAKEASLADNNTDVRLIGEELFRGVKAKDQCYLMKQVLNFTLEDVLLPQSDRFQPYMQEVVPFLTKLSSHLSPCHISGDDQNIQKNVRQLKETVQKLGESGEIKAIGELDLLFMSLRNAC
# human IL-22 [4] = target: T3, human IL-22 (human, UniProt Q9GZX6 34-179); test: cell-based or functional assay
# T3 sequence: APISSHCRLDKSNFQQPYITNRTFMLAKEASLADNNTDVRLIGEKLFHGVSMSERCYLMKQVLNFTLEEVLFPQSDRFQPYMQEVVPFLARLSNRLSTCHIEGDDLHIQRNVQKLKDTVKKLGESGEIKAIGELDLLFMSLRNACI
# murine IL-22 [5] = target: T1, murine IL-22; test: cell-based or functional assay; remark: listed apart in the source
# monkey IL-22 [6] = target: monkey IL-22 (monkey); test: cell-based or functional assay; remark: listed apart in the source
# rat IL-22 [7] = target: T2, rat IL-22; test: cell-based or functional assay; remark: listed apart in the source
# human IL-22 [8] = target: T3, human IL-22; test: cell-based or functional assay; remark: listed apart in the source
# BSA = target: T4, BSA (bovine, UniProt P02769); test: ELISA: plate coated with antigen, IgG added at 1 µg/ml, HRP goat anti-human IgG, A450
# T4 construct: also called bovine serum albumin
# human IL-22 [9] = target: T3, human IL-22; test: cell-based or functional assay; remark: listed apart in the source
# IL-26 = target: T5, IL-26 (human, UniProt Q9NPH9); test: ELISA: plate coated with 1 µg/ml antigen, IgG added at 1 µg/ml, HRP goat anti-human IgG, A450
# T5 construct: also called human IL-26
# T5 sequence (cytokine, looked up): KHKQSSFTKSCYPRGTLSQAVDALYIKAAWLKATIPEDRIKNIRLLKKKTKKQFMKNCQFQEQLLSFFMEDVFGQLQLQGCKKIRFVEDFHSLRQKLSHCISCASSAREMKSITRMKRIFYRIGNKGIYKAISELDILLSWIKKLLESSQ
# Protocol: (§1) Cross species reactivity of germlined and non-germlined optimized antibodies were determined as follows: ELISA plates (Costar, Cat. #3590) were coated overnight with 1 μg/ml of rat, mouse, or human IL-22 or human IL-26 in PBS buffer. Plates were washed with PBST buffer (0.05% Tween20 in PBS) 3 times, then blocked with 1% BSA (Sigma A8918)/PBST for 1 hr at RT. Antibodies were added at 1 μg/ml, incubated 1 hr at 25° C. […] The plates were incubated for 1 hour at 25° C., then washed with PBST, and developed with TMB (KPL, Cat. #50-76-04). Reaction was stopped with 0.18 M H₂SO₄ Plates were read at OD 450 nm.
# murine IL-22 [10] = target: T1, murine IL-22; test: as above
# Protocol: as §1
# T4 sequence (P02769 25-607 limits assumed): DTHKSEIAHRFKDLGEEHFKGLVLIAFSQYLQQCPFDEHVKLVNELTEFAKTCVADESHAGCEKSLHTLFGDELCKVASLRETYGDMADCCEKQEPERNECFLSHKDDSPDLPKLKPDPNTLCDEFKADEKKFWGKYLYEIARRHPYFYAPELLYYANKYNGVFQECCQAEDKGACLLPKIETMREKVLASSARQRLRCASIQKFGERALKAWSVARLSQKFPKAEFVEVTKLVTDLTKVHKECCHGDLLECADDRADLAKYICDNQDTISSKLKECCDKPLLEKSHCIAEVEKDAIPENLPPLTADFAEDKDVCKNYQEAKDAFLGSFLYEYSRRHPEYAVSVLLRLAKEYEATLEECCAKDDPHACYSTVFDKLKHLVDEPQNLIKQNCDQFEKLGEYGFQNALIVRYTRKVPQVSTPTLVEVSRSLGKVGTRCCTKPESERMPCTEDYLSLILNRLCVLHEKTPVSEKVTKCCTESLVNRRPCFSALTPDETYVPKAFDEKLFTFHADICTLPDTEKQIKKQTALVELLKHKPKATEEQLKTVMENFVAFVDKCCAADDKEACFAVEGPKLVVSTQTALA
Binder,IC50 (pM) in BaF3 cell based assay (murine IL-22 [1]),IC50 (pM) in BaF3 cell based assay (monkey IL-22 [2]),IC50 (pM) in BaF3 cell based assay (rat IL-22 [3]),IC50 (pM) in BaF3 cell based assay (human IL-22 [4]),IC50 (pM) in GROa cell based assay (HT29 cells) (murine IL-22 [5]),IC50 (pM) in GROa cell based assay (HT29 cells) (monkey IL-22 [6]),IC50 (pM) in GROa cell based assay (HT29 cells) (rat IL-22 [7]),IC50 (pM) in GROa cell based assay (HT29 cells) (human IL-22 [8]),binding result (BSA),IC50 of IgG (pM) in BaF3-IL-22 proliferation assay (human IL-22 [9]),binding result (IL-26),binding result (murine IL-22 [10])
B1,2.53 pM,2.58 pM,10.7 pM,3.57 pM,144 pM,89.6 pM,211 pM,124 pM,–,–,–,–
B2,–,–,–,–,–,–,–,–,no binding (tested: 1 µg/ml),100 pM,no binding (tested: 1 µg/ml),–
B3,–,–,–,–,–,–,–,–,no binding (tested: 1 µg/ml),119 pM,no binding (tested: 1 µg/ml),–
B4,–,–,–,–,–,–,–,–,no binding (tested: 1 µg/ml),197 pM,no binding (tested: 1 µg/ml),no binding (tested: 1 µg/ml)
